Results reported in patent US5792629A, “Isolated DNA encoding novel protease inhibitory polypeptide” (Mochida Pharmaceutical Co., Ltd., priority 1990, dated 1998).
Entries after “also recorded” stand apart in the source; their conditions may differ.

Tests used:
Human trypsin = target: T1, Human trypsin (Homo sapiens, UniProt P07477); experiment: Human trypsin-inhibiting activity, substrate S-2444; format: biochemical; conditions: purified sample, various concentrations; remaining activity vs buffer control (FIG. 14A-C)
T1 construct: purchased Calbiochem
Experimental: The purified sample obtained in Example 1-(5) was dissolved in 100 μl of distilled water. Concentration of this solution was determined based on its bovine trypsin-inhibiting activity using the aforementioned UTI as a standard. The solution was then diluted to various concentration levels with 0.1% BSA/0.2M triethanolamine-HCl buffer (pH 7.8) for the activity measurement. The aforementioned UTI was also diluted in the same manner.
Using the aforementioned synthetic compound S-2444 as a substrate, human trypsin-inhibiting activities of the diluted test samples and the positive control were measured in accordance with the method of Kassell (Kassell B., Methods in Enzymol., vol 19, pp.84-852, 1970) as follows.
Human trypsin (Calbiochem) was dissolved in 0.001M HCl to a concentration of 1,000 SU/ml and the solution was further diluted with 0.1% BSA/0.2M triethanolamine-HCl buffer (pH 7.8) to prepare 1.25 SU/ml of trypsin solution. 2 mM solution of S-2444 was prepared by dissolving it in distilled water.
Next, 100 μl of the test sample or positive control was mixed with 100 μl of the trypsin solution. After incubation at 37° C. for 10 minutes, 50 μl of the S-2444 solution was added to the mixture to start the reaction. The reaction was carried out at 37° C. for 20 minutes and then stopped by adding 50 μl of 50% acetic acid solution to the reaction mixture. Thereafter, absorbance at 405 nm was measured using a spectrophotometer.
In this instance, in order to eliminate absorbance of various solutions in the reaction mixture, a blank solution was prepared by mixing 100 μl of the trypsin solution with 50 μl of 50% acetic acid and then with 100 μl of each test sample or the positive control and with 50 μl of the S-2444 solution.
In this figure, human trypsin remaining activity was expressed by percentage based on the absorbance of a control reaction mixture in which 100 μl of 0.1% BSA/0.2M triethanolamine-HCl buffer (pH 7.8) was used instead of the test sample or the positive control.

trypsin = conditions: literature report; cited from earlier work
chymotrypsin = conditions: literature report; cited from earlier work
plasmin = plasmin (Homo sapiens, UniProt P00747); conditions: literature report; cited from earlier work
Sequence of plasmin (P00747 581-810 limits assumed, species assumed): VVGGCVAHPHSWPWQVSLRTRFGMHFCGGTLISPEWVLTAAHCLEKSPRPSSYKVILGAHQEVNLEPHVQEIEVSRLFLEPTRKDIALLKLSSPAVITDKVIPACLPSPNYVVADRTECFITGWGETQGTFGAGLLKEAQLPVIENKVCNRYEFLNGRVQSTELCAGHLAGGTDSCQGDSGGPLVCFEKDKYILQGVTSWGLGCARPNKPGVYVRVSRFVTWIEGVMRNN
Sequence of plasmin (P00747 97-580 partner limits assumed, species assumed): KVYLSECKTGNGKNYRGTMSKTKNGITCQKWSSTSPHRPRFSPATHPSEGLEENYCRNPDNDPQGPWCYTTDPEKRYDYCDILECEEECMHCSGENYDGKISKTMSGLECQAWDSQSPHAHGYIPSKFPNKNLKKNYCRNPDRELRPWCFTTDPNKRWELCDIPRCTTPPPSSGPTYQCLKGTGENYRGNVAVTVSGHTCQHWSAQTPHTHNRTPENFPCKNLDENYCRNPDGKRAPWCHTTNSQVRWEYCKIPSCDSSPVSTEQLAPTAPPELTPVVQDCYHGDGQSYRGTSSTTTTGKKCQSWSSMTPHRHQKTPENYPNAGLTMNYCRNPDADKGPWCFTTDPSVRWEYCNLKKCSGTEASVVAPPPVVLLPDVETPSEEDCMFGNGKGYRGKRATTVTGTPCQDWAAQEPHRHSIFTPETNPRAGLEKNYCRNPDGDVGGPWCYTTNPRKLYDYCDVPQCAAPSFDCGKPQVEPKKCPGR

elastase = conditions: literature report; cited from earlier work
FXa = FXa (Homo sapiens, UniProt P00742); conditions: literature reports, very high concentration; cited from earlier work
Sequence of FXa (P00742 235-488 limits assumed): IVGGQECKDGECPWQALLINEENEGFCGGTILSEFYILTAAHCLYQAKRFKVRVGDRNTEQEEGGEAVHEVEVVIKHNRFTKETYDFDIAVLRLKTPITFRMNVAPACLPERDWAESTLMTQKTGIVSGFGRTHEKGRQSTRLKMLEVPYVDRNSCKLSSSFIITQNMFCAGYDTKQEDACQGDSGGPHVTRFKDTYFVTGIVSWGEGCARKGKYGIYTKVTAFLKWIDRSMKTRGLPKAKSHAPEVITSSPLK
Sequence of FXa (P00742 41-179 partner limits assumed): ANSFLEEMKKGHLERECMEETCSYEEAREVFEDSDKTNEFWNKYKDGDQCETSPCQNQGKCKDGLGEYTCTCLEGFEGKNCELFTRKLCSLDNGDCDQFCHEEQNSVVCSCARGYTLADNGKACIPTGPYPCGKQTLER

human trypsin-inhibiting activity (Human trypsin) | Molecule | inhibition of trypsin (trypsin) | inhibition of chymotrypsin (chymotrypsin) | inhibition of plasmin (plasmin) | inhibition of elastase (elastase) | inhibition of FXa activity (FXa)
activity was found | CC51: polypeptide defined by the amino acid sequence of formula 1, purified from culture supernatant of E. coli JE5505 (pM560) (CNLPIVRGPCRAFIQLWAFDAVKGKCVLFPYGGCQGNGNKFYSEKECREYC) | – | – | – | – | –
activity was found | TN70: polypeptide defined by the amino acid sequence of formula 3, purified from culture supernatant of E. coli JE5505 (pM552) (protein) TVAACNLPIVRGPCRAFIQLWAFDAVKGKCVLFPYGGCQGNGNKFYSEKECREYCGVPGDGDEELLRFSN | – | – | – | – | –
activity was found | TL66: polypeptide defined by formula 8; known enzyme-digested fragment of urinary trypsin inhibitor, made in E. coli JE5505 (pM551) (protein) TVAACNLPIVRGPCRAFIQLWAFDAVKGKCVLFPYGGCQGNGNKFYSEKECREYCGVPGDGDEELL | activities to inhibit | activities to inhibit | activities to inhibit | – | –
activity was found | UTI: urinary trypsin inhibitor purified from human urine (Mochida Pharmaceutical), used as positive control (protein, glycoprotein (sugar moieties, as the filing says in general of UTI)) AVLPQEEEGSGGGQLVTEVTKKEDSCQLGYSAGPCMGMTSRYFYNGTSMACETFQYGGCMGNGNNFVTEKECLQTCRTVAACNLPIVRGPCRAFIQLWAFDAVKGKCVLFPYGGCQGNGNKFYSEKECREYCGVPGDGDEELLRFSN | shows the inhibition activities | shows the inhibition activities | shows the inhibition activities | shows the inhibition activities | slightly inhibited; also recorded: inhibited the FXa activity
